# Source: PMC12650828
# Target: cell-surface nucleolin (NCL) (UniProt P19338)
# Test: competition
# Settings: MST: 300 nM FAM-aptamer, NCL 1.95 nM-4 uM, binding buffer not specified, 25 C, 15 min; AP1-AP6 and Mut folded in 100 mM KCl, 10 mM K3PO4 pH 7.0; AS1411 in …; scale: % decrease of anti-NCL fluorescence at 4 uM
# cell-surface nucleolin (NCL), sequence (P19338 whole entry): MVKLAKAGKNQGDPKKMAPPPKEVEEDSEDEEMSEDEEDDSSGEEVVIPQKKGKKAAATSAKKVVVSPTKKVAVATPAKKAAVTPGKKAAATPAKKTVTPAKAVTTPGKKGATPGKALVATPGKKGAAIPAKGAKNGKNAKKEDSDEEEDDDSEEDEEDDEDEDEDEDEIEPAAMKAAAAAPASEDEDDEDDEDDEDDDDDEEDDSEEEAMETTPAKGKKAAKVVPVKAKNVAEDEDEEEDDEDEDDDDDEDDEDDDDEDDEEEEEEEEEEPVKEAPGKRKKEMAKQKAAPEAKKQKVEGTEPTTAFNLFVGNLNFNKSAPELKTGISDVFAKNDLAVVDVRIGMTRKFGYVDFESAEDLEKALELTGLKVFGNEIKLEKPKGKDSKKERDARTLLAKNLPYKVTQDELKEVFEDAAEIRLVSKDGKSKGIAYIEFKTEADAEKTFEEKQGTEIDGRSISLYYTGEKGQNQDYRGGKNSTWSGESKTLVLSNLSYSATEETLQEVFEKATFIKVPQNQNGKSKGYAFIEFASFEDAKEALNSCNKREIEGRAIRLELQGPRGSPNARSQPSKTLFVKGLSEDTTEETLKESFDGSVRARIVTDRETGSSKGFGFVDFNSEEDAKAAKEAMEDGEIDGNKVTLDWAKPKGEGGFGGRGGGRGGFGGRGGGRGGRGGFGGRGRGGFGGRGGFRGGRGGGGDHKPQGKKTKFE
sequence,measurement,value
GUUAGGGUUUGGGAUUG [AP1],binding signal,50
